Experiment: Unfolding of apoA-I by guanidine hydrochloride
Format: physicochemical
Method: FIG. 4. Unfolding of apoA-I in spherical (POPC)rHDL, (PLPC)rHDL, (PAPC)rHDL and (PDPC)rHDL. (POPC)rHDL, (PLPC)rHDL, (PAPC)rHDL, (PDPC)rHDL and lipid-free apoA-I were incubated with 0-8 M GdnHCl for 0 (◯), 5 ( ), and 24 (●) h. Values represent the mean of at least three determinations. Experimental errors for the wavelength of maximum fluorescence are ±1.0 nm.
FIG. 5. Kinetics of the unfolding of apoA-I in spherical (POPC)rHDL, (PLPC)rHDL, (PAPC)rHDL and (PDPC)rHDL. Spherical (POPC)rHDL ( ), (PLPC)rHDL ( ), (PAPC)rHDL (●), (PDPC)rHDL ( ) and lipid-free apoA-I (◯) were incubated with 3.5 M GdnHCl for 0-24 h. The wavelengths of maximum fluorescence represent the mean±sd of triplicate determinations.
The unfolding of apoA-I was determined by incubating the rHDL preparations at 25° C. for 0-24 h in the presence of 0-8.0 M guanidine hydrochloride (11).

lipid-free apoA-I: Apolipoprotein A-I purified from delipidated HDL of pooled human plasma, used as lipid-free comparator
rate of unfolding of apoA-I (3.5 M GdnHCl, 0-24 h): unfolded rapidly and completely
concentration of GdnHCl required to achieve 50% unfolding of apoA-I (25° C.): 1.0 M

From patent US20040266662A1, “Spheroidal hdl particles with a defined phospholipid composition” (priority 2001, published 2004)
